Source: article PMC8716928, “Effect of Mutations in GvpJ and GvpM on Gas Vesicle Formation of Halobacterium salinarum” (Frontiers in Microbiology, 2021)

T1: Fragment L133–281 of GvpL, split-GFP fusion (Halobacterium salinarum, UniProt Q9HI27 133-281)
T1 construct: GvpL, p-vac region of Hbt. salinarum PHH1, residues 133–281 (second of two domains); source: Hfx. volcanii transformant, in cells
T1 sequence (looked up): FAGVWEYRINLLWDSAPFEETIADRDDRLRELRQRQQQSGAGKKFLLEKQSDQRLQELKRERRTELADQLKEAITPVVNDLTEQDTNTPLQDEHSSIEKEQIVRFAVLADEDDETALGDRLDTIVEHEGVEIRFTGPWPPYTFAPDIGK

T2: Fragment J47–114 of GvpJ, split-GFP fusion (Halobacterium salinarum, UniProt P24374 47-114)
T2 construct: source: Hfx. volcanii transformant, in cells
T2 sequence (looked up): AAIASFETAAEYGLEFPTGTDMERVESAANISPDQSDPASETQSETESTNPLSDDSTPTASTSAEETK

T3: Fragment L1–134 of GvpL, split-GFP fusion (Halobacterium salinarum, UniProt Q9HI27 1-134)
T3 construct: GvpL, p-vac region of Hbt. salinarum PHH1, residues 1–134 (first of two domains); source: Hfx. volcanii transformant, in cells
T3 sequence (looked up): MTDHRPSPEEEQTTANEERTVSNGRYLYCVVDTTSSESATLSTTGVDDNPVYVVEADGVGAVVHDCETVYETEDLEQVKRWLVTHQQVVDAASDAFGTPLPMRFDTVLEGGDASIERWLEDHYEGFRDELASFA

T4: Fragment J1–56 of GvpJ, split-GFP fusion (Halobacterium salinarum, UniProt P24374 1-56)
T4 construct: GvpJ, p-vac region of Hbt. salinarum PHH1, residues 1–56; source: Hfx. volcanii transformant, in cells
T4 sequence (looked up): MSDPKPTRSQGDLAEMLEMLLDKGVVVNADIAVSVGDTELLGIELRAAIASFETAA

T5: GvpF, entire protein, split-GFP fusion (Halobacterium salinarum, UniProt Q9HI21 1-213)
T5 construct: GvpF, p-vac region of Hbt. salinarum PHH1, 23 kDa; also called the entire GvpF; source: Hfx. volcanii transformant, in cells
T5 sequence (looked up): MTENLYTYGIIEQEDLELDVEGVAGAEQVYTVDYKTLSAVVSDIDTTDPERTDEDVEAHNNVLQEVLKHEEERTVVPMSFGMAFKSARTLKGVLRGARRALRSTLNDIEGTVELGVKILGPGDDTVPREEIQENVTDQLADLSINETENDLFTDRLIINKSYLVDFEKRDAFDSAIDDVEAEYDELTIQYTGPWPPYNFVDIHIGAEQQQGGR

T6: Fragment F1–110 of GvpF, split-GFP fusion (Halobacterium salinarum, UniProt Q9HI21 1-110)
T6 construct: GvpF, p-vac region of Hbt. salinarum PHH1, residues 1–110 (first of two domains); source: Hfx. volcanii transformant, in cells
T6 sequence (looked up): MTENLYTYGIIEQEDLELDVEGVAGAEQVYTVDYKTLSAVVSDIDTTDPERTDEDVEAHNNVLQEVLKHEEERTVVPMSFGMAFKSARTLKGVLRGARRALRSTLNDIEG

B1: GvpL, entire protein, split-GFP fusion of Figure 7 (natural protein, Halobacterium salinarum, UniProt Q9HI27 1-281, looked up)
chain: MTDHRPSPEEEQTTANEERTVSNGRYLYCVVDTTSSESATLSTTGVDDNPVYVVEADGVGAVVHDCETVYETEDLEQVKRWLVTHQQVVDAASDAFGTPLPMRFDTVLEGGDASIERWLEDHYEGFRDELASFAGVWEYRINLLWDSAPFEETIADRDDRLRELRQRQQQSGAGKKFLLEKQSDQRLQELKRERRTELADQLKEAITPVVNDLTEQDTNTPLQDEHSSIEKEQIVRFAVLADEDDETALGDRLDTIVEHEGVEIRFTGPWPPYTFAPDIGK
notes: GvpL, p-vac region of Hbt. salinarum PHH1, 32 kDa; also called the entire GvpL; source: Hfx. volcanii transformant, in cells

Assays:
Assay in all cases: split reporter (BiFC, NanoBiT); split-GFP (mGFP2) in Hfx. volcanii transformants, entire Gvp proteins and fragments (Figure 7); arrangement of the GFP portions not stated; relative fluorescence (rf) of cells against untransformed WR340
Conditions in all cases: partners not purified
[1] = molecular target: T1, Fragment L133–281 of GvpL, split-GFP …
[2] = molecular target: T2, Fragment J47–114 of GvpJ, split-GFP …
[3] = molecular target: B1
[4] = molecular target: T3, Fragment L1–134 of GvpL, split-GFP …
[5] = molecular target: T2, Fragment J47–114 of GvpJ, split-GFP …; remark: listed apart in the source
[6] = molecular target: T4, Fragment J1–56 of GvpJ, split-GFP fusion
[7] = molecular target: T4, Fragment J1–56 of GvpJ, split-GFP fusion; remark: listed apart in the source
[8] = molecular target: T5, GvpF, entire protein, split-GFP fusion
[9] = molecular target: T6, Fragment F1–110 of GvpF, split-GFP …

Row | relative fluorescence (rf) [1] [rf] | relative fluorescence (rf) [5] [rf] | relative fluorescence (rf) [7] [rf] | Binder | further results
1 | 6.1 | – | – | GvpK, split-GFP fusion (natural protein, GvpK, p-vac region of Hbt. salinarum PHH1; no truncation is mentioned; source: Hfx. volcanii transformant, in cells) not shown | relative fluorescence (rf) [2]: < 5 rf; relative fluorescence (rf) [3]: 7.4 rf
2 | < 2.6 | 15 | – | GvpG, split-GFP fusion (natural protein, Halobacterium salinarum, UniProt P24371 1-83, looked up, GvpG, p-vac region of Hbt. salinarum PHH1; no truncation is mentioned; source: Hfx. volcanii transformant, in cells) MFIIDDLFVSPFFSLLDILQTMALDEMYDTKSIRDDIKENQLLYEVGERSDEEYQQRKQALESQLEMAEQVQEQMRDRMEVKK | relative fluorescence (rf) [4]: < 2.6 rf; relative fluorescence (rf) [3]: 77.5 rf
3 | < 2.6 | – | – | GvpM, entire protein, split-GFP fusion of Figure 7 (natural protein, Halobacterium salinarum, UniProt P24377 1-84, looked up, GvpM, p-vac region of Hbt. salinarum PHH1; printed as 83 aa and as 84 aa; also called the entire GvpM; source: Hfx. volcanii transformant, in cells) MEPTKDETHAIVEFVDVLLRDGAVIQADVIVTVADIPLIGISLRAAIAGMTTMTEYGLFEEWDAAHRQQSEAFTTSPTADRRED | relative fluorescence (rf) [4]: < 2.6 rf; relative fluorescence (rf) [2]: < 5 rf
4 | – | 11 | 20 | B1 | relative fluorescence (rf) [6]: 6.7 rf
5 | – | 5 | 10 | MAQPDSSGLAEVLDRVLDKGVV (peptide, UniProt P08958 1-22, looked up, GvpA, p-vac region of Hbt. salinarum PHH1, first 22 aa including α-helix 1; construct of Völkner et al. 2020; source: Hfx. volcanii transformant, in cells) [Fragment A1–22 of GvpA, split-GFP fusion] | relative fluorescence (rf) [8]: 41 rf; relative fluorescence (rf) [9]: < 4 rf
6 | – | 20 | 20 | EEWDAAHRQQSEAFTTSPTADRRED (peptide, UniProt P24377 60-84, looked up, GvpM, p-vac region of Hbt. salinarum PHH1, C-terminal 25 aa; also called M25C; M(25C); source: Hfx. volcanii transformant, in cells) [Fragment M60–84 of GvpM, split-GFP fusion] | –
7 | – | 20 | 20 | MEPTKDETHAIVEFVDVLLRDGAVI (peptide, UniProt P24377 1-25, looked up, GvpM, p-vac region of Hbt. salinarum PHH1, N-terminal 25 aa; also called M25N; M(25N); source: Hfx. volcanii transformant, in cells) [Fragment M1–25 of GvpM, split-GFP fusion of Figure 7] | –
8 | < 2.6 | – | – | GvpJ, entire protein, split-GFP fusion of Figure 7 (natural protein, Halobacterium salinarum, UniProt P24374 1-114, looked up, also called the entire GvpJ; source: Hfx. volcanii transformant, in cells) MSDPKPTRSQGDLAEMLEMLLDKGVVVNADIAVSVGDTELLGIELRAAIASFETAAEYGLEFPTGTDMERVESAANISPDQSDPASETQSETESTNPLSDDSTPTASTSAEETK | relative fluorescence (rf) [4]: < 2.6 rf; relative fluorescence (rf) [2]: < 5 rf
9 | – | 13 | – | GvpH, split-GFP fusion (natural protein, Halobacterium salinarum, UniProt P24372 1-182, looked up, GvpH, p-vac region of Hbt. salinarum PHH1; no truncation is mentioned; source: Hfx. volcanii transformant, in cells) MVPDENDDASDDQSSQLSGLLDQLHTLVEVLADIEEEGGHRHESGRIDRGNARIDYDYDVSIGLGRADGSSYDEEPSSNRSRSEQRSGQQRTTEDSIHVETRGGTSGDELVVVADLPGVTDDDVDVALDTDEQALTLRVDDDVVERVVLDRPDVAITDMTLRNQVLEIRLARTSDTDGGEST | –
10 | – | – | – | GvpA, entire protein, split-GFP fusion (natural protein, Halobacterium salinarum, UniProt P08958 1-76, looked up, GvpA, p-vac region of Hbt. salinarum PHH1, 76 aa; also called the entire GvpA; source: Hfx. volcanii transformant, in cells) MAQPDSSGLAEVLDRVLDKGVVVDVWARVSLVGIEILTVEARVVAASVDTFLHYAEEIAKIEQAELTAGAEAAPEA | relative fluorescence (rf) [8]: 20 rf; relative fluorescence (rf) [9]: < 4 rf
11 | – | 5 | – | VAASVDTFLHYAEEIAKIEQAELTAGAEAAPEA (domain or fragment, Halobacterium salinarum, UniProt P08958 44-76, looked up, GvpA, p-vac region of Hbt. salinarum PHH1, residues 44–76; construct of Völkner et al. 2020; source: Hfx. volcanii transformant, in cells) [Fragment A44–76 of GvpA, split-GFP fusion] | –
